T1: cynomolgus CD3 epsilon (cynomolgus monkey, UniProt Q95LI5 22-117, limits assumed)
T1 construct: also called cyCD3e
T1 sequence (looked up): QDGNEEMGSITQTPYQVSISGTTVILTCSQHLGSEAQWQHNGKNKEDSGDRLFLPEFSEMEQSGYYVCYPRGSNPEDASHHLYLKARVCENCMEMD


What was measured:
[1] = target: T2, cynomolgus monkey PSMA (cynomolgus monkey, UniProt A0A2K5VNZ0 44-750); assay: Octet, uTCE
T2 construct: also called cyPSMA; cyno PSMA

[2] = target: T3, human PSMA (human, UniProt Q04609 44-750, limits assumed); assay: Octet, uTCE
T3 construct: other Octet runs used human PSMA-Fc; also called huPSMA; prostate-specific membrane antigen
T3 sequence (Q04609 44-750 limits assumed): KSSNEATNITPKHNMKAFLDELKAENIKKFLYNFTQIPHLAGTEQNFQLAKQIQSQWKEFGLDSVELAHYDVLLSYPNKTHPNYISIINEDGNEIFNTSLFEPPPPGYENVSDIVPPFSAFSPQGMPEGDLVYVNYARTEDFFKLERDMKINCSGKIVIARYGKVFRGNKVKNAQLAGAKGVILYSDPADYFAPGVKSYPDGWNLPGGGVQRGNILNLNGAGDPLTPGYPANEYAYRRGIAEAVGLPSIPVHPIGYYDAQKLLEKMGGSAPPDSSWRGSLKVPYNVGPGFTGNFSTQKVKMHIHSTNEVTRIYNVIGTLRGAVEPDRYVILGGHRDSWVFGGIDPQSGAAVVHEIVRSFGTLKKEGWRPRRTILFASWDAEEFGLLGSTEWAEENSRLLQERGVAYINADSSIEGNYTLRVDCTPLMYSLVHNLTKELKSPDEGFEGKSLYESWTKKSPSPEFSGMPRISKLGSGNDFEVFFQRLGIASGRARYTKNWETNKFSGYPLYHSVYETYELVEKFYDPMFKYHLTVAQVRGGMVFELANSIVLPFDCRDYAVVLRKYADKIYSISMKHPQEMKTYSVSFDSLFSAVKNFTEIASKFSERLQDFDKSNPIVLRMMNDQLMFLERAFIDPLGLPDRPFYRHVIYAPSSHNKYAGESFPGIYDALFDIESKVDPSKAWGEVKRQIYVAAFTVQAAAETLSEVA

[3] = target: T4, human CD3 epsilon (human, UniProt P07766 23-126, limits assumed); assay: Octet, uTCE
T4 construct: also called huCD3e
T4 sequence (P07766 23-126 limits assumed): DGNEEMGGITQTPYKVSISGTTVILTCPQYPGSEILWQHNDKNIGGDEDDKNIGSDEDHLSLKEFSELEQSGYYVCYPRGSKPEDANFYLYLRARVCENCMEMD

[4] = target: T1, cynomolgus CD3 epsilon; assay: Octet, uTCE
[5] = target: T4, human CD3 epsilon; assay: Biacore, uTCE
[6] = target: T1, cynomolgus CD3 epsilon; assay: Biacore, uTCE
[7] = target: T2, cynomolgus monkey PSMA; assay: Biacore, uTCE
[8] = target: T3, human PSMA; assay: Biacore, uTCE
[9] = target: T4, human CD3 epsilon; assay: Octet, crude lysate
Procedure: Pool 2 consisted of paTCE molecules each containing PSMA.262 and one of 64 CD3.23 mutation combination variants. Stability and affinity of the individually expressed molecules in the form of crude lysate was evaluated by Octet. […] The binding of these anti-CD3 molecules (CD3.227, CD3.228, CD3.229 and CD3.230) to human and cynomolgus CD3 was measured by Octet and the Tₘ was measured by Differential Scanning Fluorimetry. All variants were paired with PSMA.262 except for CD3.23 which was paired with PSMA.5.

Kd [1] [nM]	Kd [2] [nM]	Kd [3] [nM]	Kd [4] [nM]	Kd [5] [nM]	Kd [6] [nM]	Kd [7] [nM]	Kd [8] [nM]	Kd [9] [nM]	Binder
13.1	1.6	26.6	33.7	9.83	10.4	13	0.5	–	uTCE from AC3934 (PSMA.262-CD3.228) (bispecific antibody, release-segment residues left at the ends not specified; also called AMX500-P7 uTCE) GTSESATPESQVQLVESGGGVVQPGRSLRLSCAASGRTFGIYVWGWVRQAPGKEREFVGAISWSGSNRKVSDSVKGRFTISRDNSKNTLYLQMNSLRAEDTAVYYCAASNKLYGRTWYDFNESDYWGQGTQVTVSSGGGGSGGGSELVVTQEPSLTVSPGGTVTLTCRSSNGAVTSSNYANWVQQKPGQAPRGLIGGTNKRAPGTPARFSGSLLGGKAALTLSGVQPEDEAVYYCALWYPNLWVFGGGTKLTVLSESATPESGPGTSPGATPESGPGTSESATPEVQLVESGGGIVQPGGSLRLSCAASGFTFSTYAMNWVRQAPGKGLEWVGRIRTKRNNYATYYADSVKGRFTISRDDSKNTVYLQMNSLKTEDTAVYYCVRHENFGNSYVSWFAHWGQGTLVTVSSGTATPESGPG
198	13.2	43	44.9	27.3	26.6	354	19	–	uTCE from AC3928 (PSMA.350-CD3.23) (bispecific antibody, release-segment residues left at the ends not specified; also called AMX500-P6 uTCE) GTSESATPESQVQLVESGGGVVQPGRSLRLSCAASGRTFGIYVWGWFRQAPGKEREFVGAMSWSGSNRKVSDSVKGRFTISRDNSKNTLYLQMNSLRAEDTAVYYCAASNKEYGRTWYDFNESDYWGQGTQVTVSSGGGGSGGGSELVVTQEPSLTVSPGGTVTLTCRSSNGAVTSSNYANWVQQKPGQAPRGLIGGTNKRAPGTPARFSGSLLGGKAALTLSGVQPEDEAVYYCALWYPNLWVFGGGTKLTVLSESATPESGPGTSPGATPESGPGTSESATPEVQLLESGGGIVQPGGSLKLSCAASGFTFNTYAMNWVRQAPGKGLEWVARIRSKYNNYATYYADSVKDRFTISRDDSKNTVYLQMNNLKTEDTAVYYCVRHENFGNSYVSWFAHWGQGTLVTVSSGTATPESGPG

The remaining lines, values behind:

Binder	Kd [1] [nM]	Kd [2] [nM]	Kd [3] [nM]	Kd [4] [nM]	Kd [5] [nM]	Kd [6] [nM]	Kd [7] [nM]	Kd [8] [nM]	Kd [9] [nM]
uTCE from AC3445 (PSMA.119-CD3.23) (bispecific antibody, release-segment residues left at the ends not specified) GTSESATPESQVQLVESGGGVVQPGRSLRLSCAASGRTFGIYVMGWVRQAPGKEREFVAAISWSGSNRKVSDSVKGRFTISRDNSKNTLYLQMNSLRAEDTAVYYCAASNRLYGRTWYDFNESDYWGQGTQVTVSSGGGGSGGGSELVVTQEPSLTVSPGGTVTLTCRSSNGAVTSSNYANWVQQKPGQAPRGLIGGTNKRAPGTPARFSGSLLGGKAALTLSGVQPEDEAVYYCALWYPNLWVFGGGTKLTVLSESATPESGPGTSPGATPESGPGTSESATPEVQLLESGGGIVQPGGSLKLSCAASGFTFNTYAMNWVRQAPGKGLEWVARIRSKYNNYATYYADSVKDRFTISRDDSKNTVYLQMNNLKTEDTAVYYCVRHENFGNSYVSWFAHWGQGTLVTVSSGTATPESGPG	47.5	6.2	34.8	40	–	–	–	–	–
CD3.218 (AC3649) (bispecific antibody, V domains shown, paTCE with PSMA.262 VHH; crude lysate) VH: EVQLVESGGGIVQPGGSLRLSCAASGFTFSTYAMNWVRQAPGKGLEWVGRIRSKYNNYATTYADSVKGRFTISRDDSKNTVYLQMNSLKTEDTAVYYCVRHENFGNSYVSWFAHWGQGTLVTVSS VL: ELVVTQEPSLTVSPGGTVTLTCRSSNGAVTSSNYANWVQQKPGQAPRGLIGGTNKRAPGTPARFSGSLLGGKAALTLSGVQPEDEAVYYCALWYPNLWVFGGGTKLTVL	–	–	–	–	–	–	–	–	4.4
CD3.251 (AC3682) (bispecific antibody, V domains shown, paTCE with PSMA.262 VHH; crude lysate) VH: EVQLVESGGGIVQPGGSLRLSCAASGFTFNTYAMNWVRQAPGKGLEWVGRIRSKRNNYATTYADSVKDRFTISRDDSKNTVYLQMNSLKTEDTAVYYCVRHENFGNSYVSWFAHWGQGTLVTVSS VL: ELVVTQEPSLTVSPGGTVTLTCRSSNGAVTSSNYANWVQQKPGQAPRGLIGGTNKRAPGTPARFSGSLLGGKAALTLSGVQPEDEAVYYCALWYPNLWVFGGGTKLTVL	–	–	–	–	–	–	–	–	32.9

Source: patent publication US20250188184A1 (published 2025)
